Experimental data from the supplement of paper PMC12855868.

B1: library; numbered along this chain (parent)
chain: MAAAGGARLLRAASAVLGGPAGRWLHHAGSRAGSSGLLRNRGPGGSAEASRSLSVSARARSSSEDKITVHFINRDGETLTTKGKVGDSLLDVVVENNLDIDGFGACEGTLACSTCHLIFEDHIYEKLDAITDEENDMLDLAYGLTDRSRLGCQICLTKSMDNMTVRVPETVADARQSIDVGKTS

Variants of: B1
Assay: scaled log2 fold change in cell abundance, elesclomol vs control (0 = silent mean, 1 = nonsense mean) (scaled log2 ratio); higher = higher viability under elesclomol (loss of FDX1 cuproptosis function)
Settings: glucose 10 mM
[1] = with ABC1 FDX1 KO, elesclomol 5 nM, 14 days
[2] = with HEK293T FDX1 KO, elesclomol 40 nM, 11 days
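Further: variant abundance is its share of total variant reads in each endpoint sample, from next-generation sequencing of the integrated ORF PCR-amplified out of genomic DNA.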

Variant | scaled log2 fold change [1] | scaled log2 fold change [2]
MAAAGGARLLRAASAVLGGPAGRWLHHAGSRAGSSGLLRNRGPGGSAEASRSLSVSARARSSSEDKITVHFINRDGETLTTKGKVGDSLLDVVVENNLDIDGFGACEGTLACSTCHLIFEDHIYEKLDAITDEENDMLDLIYGLTDRSRLGCQICLTKSMDNMTVRVPETVADARQSIDVGKTS [A141I] | -0.168 | 0.617
MAAAGGARLLRAASAVLGGPAGRWLHHAGSRAGSSGLLRNRGPGGSAEASRSLSVSARARSSSEDKITVHFINRDGETLTTKGKVGDSLLDVVVENNLDIDGFGACEGTLACSTCHLIFEDHIYEKLDAITDEENDMLDLKYGLTDRSRLGCQICLTKSMDNMTVRVPETVADARQSIDVGKTS [A141K] | 0.122 | -0.0127
MAAAGGARLLRAASAVLGGPAGRWLHHAGSRAGSSGLLRNRGPGGSAEASRSLSVSARARSSSEDKITVHFINRDGETLTTKGKVGDSLLDVVVENNLDIDGFGACEGTLACSTCHLIFEDHIYEKLDAITDEENDMLDLNYGLTDRSRLGCQICLTKSMDNMTVRVPETVADARQSIDVGKTS [A141N] | -0.0904 | 0.596
MAAAGGARLLRAASAVLGGPAGRWLHHAGSRAGSSGLLRNRGPGGSAEASRSLSVSARARSSSEDKITVHFINRDGETLTTKGKVGDSLLDVVVENNLDIDGFGACEGTLACSTCHLIFEDHIYEKLDAITDEENDMLDLMYGLTDRSRLGCQICLTKSMDNMTVRVPETVADARQSIDVGKTS [A141M] | -0.0992 | 0.123
MAAAGGARLLRAASAVLGGPAGRWLHHAGSRAGSSGLLRNRGPGGSAEASRSLSVSARARSSSEDKITVHFINRDGETLTTKGKVGDSLLDVVVENNLDIDGFGACEGTLACSTCHLIFEDHIYEKLDAITDEENDMLDLQYGLTDRSRLGCQICLTKSMDNMTVRVPETVADARQSIDVGKTS [A141Q] | 0.09 | 0.9
MAAAGGARLLRAASAVLGGPAGRWLHHAGSRAGSSGLLRNRGPGGSAEASRSLSVSARARSSSEDKITVHFINRDGETLTTKGKVGDSLLDVVVENNLDIDGFGACEGTLACSTCHLIFEDHIYEKLDAITDEENDMLDLPYGLTDRSRLGCQICLTKSMDNMTVRVPETVADARQSIDVGKTS [A141P] | 0.46 | -0.803
MAAAGGARLLRAASAVLGGPAGRWLHHAGSRAGSSGLLRNRGPGGSAEASRSLSVSARARSSSEDKITVHFINRDGETLTTKGKVGDSLLDVVVENNLDIDGFGACEGTLACSTCHLIFEDHIYEKLDAITDEENDMLDLGYGLTDRSRLGCQICLTKSMDNMTVRVPETVADARQSIDVGKTS [A141G] | -0.119 | 0.016
MAAAGGARLLRAASAVLGGPAGRWLHHAGSRAGSSGLLRNRGPGGSAEASRSLSVSARARSSSEDKITVHFINRDGETLTTKGKVGDSLLDVVVENNLDIDGFGACEGTLACSTCHLIFEDHIYEKLDAITDEENDMLDLLYGLTDRSRLGCQICLTKSMDNMTVRVPETVADARQSIDVGKTS [A141L] | -0.402 | –
MAAAGGARLLRAASAVLGGPAGRWLHHAGSRAGSSGLLRNRGPGGSAEASRSLSVSARARSSSEDKITVHFINRDGETLTTKGKVGDSLLDVVVENNLDIDGFGACEGTLACSTCHLIFEDHIYEKLDAITDEENDMLDLHYGLTDRSRLGCQICLTKSMDNMTVRVPETVADARQSIDVGKTS [A141H] | 0.134 | -0.527
